Molecular target: Notch-1 receptor on RIN 1046-38 clonal rat beta-cells (rat, UniProt Q07008 19-2531)
Assay: cell-based or functional assay

Notch-1 receptor on RIN 1046-38 clonal rat beta-cells, sequence (Q07008 19-2531): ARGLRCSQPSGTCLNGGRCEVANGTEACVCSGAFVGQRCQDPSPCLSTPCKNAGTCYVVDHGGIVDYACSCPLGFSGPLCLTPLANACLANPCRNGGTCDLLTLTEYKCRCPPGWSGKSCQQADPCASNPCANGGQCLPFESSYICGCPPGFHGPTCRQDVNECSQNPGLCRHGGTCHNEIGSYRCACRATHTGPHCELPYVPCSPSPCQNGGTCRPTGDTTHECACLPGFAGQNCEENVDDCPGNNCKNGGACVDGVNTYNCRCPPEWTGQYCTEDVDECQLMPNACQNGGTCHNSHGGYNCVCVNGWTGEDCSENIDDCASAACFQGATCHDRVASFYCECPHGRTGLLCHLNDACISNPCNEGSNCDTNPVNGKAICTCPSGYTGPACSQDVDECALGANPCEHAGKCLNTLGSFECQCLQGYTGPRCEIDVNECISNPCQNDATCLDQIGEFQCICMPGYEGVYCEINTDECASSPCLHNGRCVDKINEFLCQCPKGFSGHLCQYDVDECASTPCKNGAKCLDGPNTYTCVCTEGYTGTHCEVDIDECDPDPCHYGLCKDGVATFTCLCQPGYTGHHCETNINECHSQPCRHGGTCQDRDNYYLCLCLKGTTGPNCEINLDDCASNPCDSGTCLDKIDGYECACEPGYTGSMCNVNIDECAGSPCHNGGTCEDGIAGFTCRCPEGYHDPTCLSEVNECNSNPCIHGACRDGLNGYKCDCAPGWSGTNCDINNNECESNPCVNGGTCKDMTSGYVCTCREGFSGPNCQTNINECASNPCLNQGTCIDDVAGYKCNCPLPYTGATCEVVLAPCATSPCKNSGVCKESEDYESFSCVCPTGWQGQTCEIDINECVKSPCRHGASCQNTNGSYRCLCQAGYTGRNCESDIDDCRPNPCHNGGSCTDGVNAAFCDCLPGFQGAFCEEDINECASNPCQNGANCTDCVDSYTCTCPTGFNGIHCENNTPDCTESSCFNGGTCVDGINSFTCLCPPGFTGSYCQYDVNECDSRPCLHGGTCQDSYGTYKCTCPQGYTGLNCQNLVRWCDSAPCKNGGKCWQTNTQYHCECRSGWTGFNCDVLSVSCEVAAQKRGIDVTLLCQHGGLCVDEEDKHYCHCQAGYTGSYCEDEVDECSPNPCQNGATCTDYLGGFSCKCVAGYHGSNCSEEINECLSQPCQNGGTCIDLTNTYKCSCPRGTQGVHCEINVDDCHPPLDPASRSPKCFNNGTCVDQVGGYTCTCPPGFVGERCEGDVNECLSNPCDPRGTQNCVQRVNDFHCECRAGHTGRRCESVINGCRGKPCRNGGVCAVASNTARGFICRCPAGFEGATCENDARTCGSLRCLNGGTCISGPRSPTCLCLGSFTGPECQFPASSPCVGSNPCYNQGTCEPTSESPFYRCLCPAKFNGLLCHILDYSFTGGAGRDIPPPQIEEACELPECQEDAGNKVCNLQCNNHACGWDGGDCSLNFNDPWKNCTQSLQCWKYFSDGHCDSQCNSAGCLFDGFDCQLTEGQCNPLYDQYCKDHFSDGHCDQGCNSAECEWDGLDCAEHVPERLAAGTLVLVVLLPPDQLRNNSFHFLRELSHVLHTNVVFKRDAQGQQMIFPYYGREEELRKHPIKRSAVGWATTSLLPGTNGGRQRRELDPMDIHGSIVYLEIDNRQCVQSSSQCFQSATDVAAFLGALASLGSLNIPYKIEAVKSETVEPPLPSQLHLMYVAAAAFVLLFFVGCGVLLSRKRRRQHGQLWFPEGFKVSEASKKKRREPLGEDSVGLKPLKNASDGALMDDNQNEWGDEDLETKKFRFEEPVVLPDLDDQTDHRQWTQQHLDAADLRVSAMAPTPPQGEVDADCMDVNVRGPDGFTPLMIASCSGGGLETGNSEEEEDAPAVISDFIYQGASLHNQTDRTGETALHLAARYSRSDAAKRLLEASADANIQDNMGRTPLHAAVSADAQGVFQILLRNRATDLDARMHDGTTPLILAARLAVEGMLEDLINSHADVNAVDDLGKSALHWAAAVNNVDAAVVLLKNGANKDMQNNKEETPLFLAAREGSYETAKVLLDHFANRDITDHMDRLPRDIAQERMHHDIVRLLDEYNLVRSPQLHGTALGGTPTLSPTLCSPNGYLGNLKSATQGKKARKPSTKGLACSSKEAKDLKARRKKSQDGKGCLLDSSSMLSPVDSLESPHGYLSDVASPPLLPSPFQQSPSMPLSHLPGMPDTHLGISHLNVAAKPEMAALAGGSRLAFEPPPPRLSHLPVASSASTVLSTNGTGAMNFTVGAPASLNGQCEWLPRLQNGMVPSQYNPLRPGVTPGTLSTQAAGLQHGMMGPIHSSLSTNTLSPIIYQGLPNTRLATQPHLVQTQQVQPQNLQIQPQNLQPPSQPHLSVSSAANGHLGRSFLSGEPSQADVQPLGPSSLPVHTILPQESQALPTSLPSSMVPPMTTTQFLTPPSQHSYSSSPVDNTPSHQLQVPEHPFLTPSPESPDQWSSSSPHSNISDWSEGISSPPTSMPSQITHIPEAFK

NICD nuclear localization, R-JAG together with glucose [fold] | NICD translocation (nuclear NICD, immunoblot of nuclear extracts of RIN cells) [fold] | Binder
6 | 4 | CDDYYYGFGCNKFGRPRDD [Jagged peptide R-JAG]
 | 4 | CDDYYYGFGCNKFCRPR [Jagged peptide JAG-1]

Source: patent US20080299088A1 (US Dept. of Health and Human Services, published 2008)
